According to publication PMC2171675:

Target: neural cell adhesion molecule (NCAM) (mouse (endogenous in brain)) (UniProt P13595)
Assay: co-IP

Chain of UniProt P13595 (P13595 20-1115): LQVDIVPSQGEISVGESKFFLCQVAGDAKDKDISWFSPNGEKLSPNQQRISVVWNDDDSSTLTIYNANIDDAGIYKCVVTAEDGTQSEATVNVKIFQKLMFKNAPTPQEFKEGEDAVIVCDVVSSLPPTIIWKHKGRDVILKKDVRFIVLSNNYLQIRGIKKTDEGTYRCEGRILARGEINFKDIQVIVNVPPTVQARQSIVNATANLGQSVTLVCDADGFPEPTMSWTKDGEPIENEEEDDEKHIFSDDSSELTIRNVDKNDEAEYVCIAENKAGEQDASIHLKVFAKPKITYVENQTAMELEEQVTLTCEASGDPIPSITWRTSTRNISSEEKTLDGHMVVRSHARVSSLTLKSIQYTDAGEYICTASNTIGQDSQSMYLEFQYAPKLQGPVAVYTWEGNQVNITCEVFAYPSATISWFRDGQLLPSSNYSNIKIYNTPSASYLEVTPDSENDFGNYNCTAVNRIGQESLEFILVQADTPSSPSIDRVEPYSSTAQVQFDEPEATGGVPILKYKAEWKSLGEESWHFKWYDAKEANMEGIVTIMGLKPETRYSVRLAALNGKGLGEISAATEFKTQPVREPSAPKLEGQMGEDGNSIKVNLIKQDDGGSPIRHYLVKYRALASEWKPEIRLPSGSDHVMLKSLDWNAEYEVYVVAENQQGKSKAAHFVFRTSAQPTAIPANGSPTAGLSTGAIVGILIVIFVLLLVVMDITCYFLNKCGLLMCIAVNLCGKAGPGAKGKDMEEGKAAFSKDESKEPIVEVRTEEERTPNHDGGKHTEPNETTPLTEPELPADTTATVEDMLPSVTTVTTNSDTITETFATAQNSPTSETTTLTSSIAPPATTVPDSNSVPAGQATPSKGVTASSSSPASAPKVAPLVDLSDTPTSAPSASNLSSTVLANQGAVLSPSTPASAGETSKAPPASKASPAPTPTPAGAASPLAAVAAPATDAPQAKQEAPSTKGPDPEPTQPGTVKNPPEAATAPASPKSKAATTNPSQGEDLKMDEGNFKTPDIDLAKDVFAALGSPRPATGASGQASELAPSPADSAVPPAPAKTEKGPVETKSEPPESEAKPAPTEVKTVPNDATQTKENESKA

reduction of the co-immunoprecipitated complex with 2 mM EDTA against with Ca2+: 60%
Substance: receptor-like protein tyrosine phosphatase RPTPα (natural protein)
